Results taken from the Human Domainome abundance scans (Beltran et al. 2025).
± gives the uncertainty stated by the source.

Test: abundance fitness (aPCA) (normalised: wild type 0, dead -1); higher = more abundant; growth selection in yeast, the domain comes from the species named
Conditions: Homo sapiens

Substance | abundance fitness
NEDD4-like E3 ubiquitin-protein ligase WWP2 E443G, O00308 | -0.091 ± 0.038
NEDD4-like E3 ubiquitin-protein ligase WWP2 G489A, O00308 | -0.007 ± 0.041
NEDD4-like E3 ubiquitin-protein ligase WWP2 E451C, O00308 | -0.227 ± 0.063
NEDD4-like E3 ubiquitin-protein ligase WWP2 T483V, O00308 | -0.03 ± 0.052
NEDD4-like E3 ubiquitin-protein ligase WWP2 P488H, O00308 | 0.024 ± 0.062
NEDD4-like E3 ubiquitin-protein ligase WWP2 P488Y, O00308 | -0.066 ± 0.043
NEDD4-like E3 ubiquitin-protein ligase WWP2 R460W, O00308 | -0.413 ± 0.036
NEDD4-like E3 ubiquitin-protein ligase WWP2 G449P, O00308 | -0.937 ± 0.11
NEDD4-like E3 ubiquitin-protein ligase WWP2 G449F, O00308 | -0.163 ± 0.052
NEDD4-like E3 ubiquitin-protein ligase WWP2 S487D, O00308 | 0.013 ± 0.036
NEDD4-like E3 ubiquitin-protein ligase WWP2 Y491L, O00308 | -0.016 ± 0.036
NEDD4-like E3 ubiquitin-protein ligase WWP2 F479V, O00308 | -0.004 ± 0.04
NEDD4-like E3 ubiquitin-protein ligase WWP2 P475R, O00308 | -0.933 ± 0.041
NEDD4-like E3 ubiquitin-protein ligase WWP2 V463K, O00308 | -0.466 ± 0.062
NEDD4-like E3 ubiquitin-protein ligase WWP2 M440D, O00308 | -0.138 ± 0.29
NEDD4-like E3 ubiquitin-protein ligase WWP2 I441L, O00308 | -0.198 ± 0.054
NEDD4-like E3 ubiquitin-protein ligase WWP2 D464F, O00308 | -0.903 ± 0.12
NEDD4-like E3 ubiquitin-protein ligase WWP2 S487T, O00308 | 0.058 ± 0.059
NEDD4-like E3 ubiquitin-protein ligase WWP2 A490G, O00308 | -0.007 ± 0.039
NEDD4-like E3 ubiquitin-protein ligase WWP2 A490H, O00308 | -0.316 ± 0.078
NEDD4-like E3 ubiquitin-protein ligase WWP2 V463Y, O00308 | -0.26 ± 0.076
Heterogeneous nuclear ribonucleoprotein U-like protein 2 D21S, Q1KMD3 | -0.165 ± 0.066
NEDD4-like E3 ubiquitin-protein ligase WWP2 F462T, O00308 | -0.87 ± 0.16

Substance | abundance fitness
NEDD4-like E3 ubiquitin-protein ligase WWP2 A445P, O00308 | -0.14 ± 0.07
NEDD4-like E3 ubiquitin-protein ligase WWP2 V459W, O00308 | -0.18 ± 0.07
NEDD4-like E3 ubiquitin-protein ligase WWP2 G458P, O00308 | -1.03 ± 0.064
NEDD4-like E3 ubiquitin-protein ligase WWP2 D474I, O00308 | -0.069 ± 0.092
NEDD4-like E3 ubiquitin-protein ligase WWP2 T471Y, O00308 | -0.786 ± 0.14
NEDD4-like E3 ubiquitin-protein ligase WWP2 E443Y, O00308 | 0.006 ± 0.058
NEDD4-like E3 ubiquitin-protein ligase WWP2 R460Q, O00308 | -0.104 ± 0.054
NEDD4-like E3 ubiquitin-protein ligase WWP2 M440G, O00308 | -0.284 ± 0.11
NEDD4-like E3 ubiquitin-protein ligase WWP2 A445D, O00308 | 0.121 ± 0.078
NEDD4-like E3 ubiquitin-protein ligase WWP2 E480T, O00308 | -0.119 ± 0.062
NEDD4-like E3 ubiquitin-protein ligase WWP2 G482T, O00308 | -0.019 ± 0.06
NEDD4-like E3 ubiquitin-protein ligase WWP2 G449V, O00308 | -0.679 ± 0.035
NEDD4-like E3 ubiquitin-protein ligase WWP2 P447D, O00308 | -0.304 ± 0.083
Transcription factor SOX-11 R82M, P35716 | 0.124 ± 0.12
NEDD4-like E3 ubiquitin-protein ligase WWP2 M452R, O00308 | -0.103 ± 0.035
NEDD4-like E3 ubiquitin-protein ligase WWP2 G482W, O00308 | -0.151 ± 0.05
NEDD4-like E3 ubiquitin-protein ligase WWP2 K453T, O00308 | -0.128 ± 0.056
NEDD4-like E3 ubiquitin-protein ligase WWP2 A445N, O00308 | 0.103 ± 0.073
NEDD4-like E3 ubiquitin-protein ligase WWP2 D474F, O00308 | -0.376 ± 0.086
NEDD4-like E3 ubiquitin-protein ligase WWP2 E457P, O00308 | -0.5 ± 0.075
NEDD4-like E3 ubiquitin-protein ligase WWP2 A490C, O00308 | -0.01 ± 0.051
NEDD4-like E3 ubiquitin-protein ligase WWP2 P444G, O00308 | 0.089 ± 0.049
NEDD4-like E3 ubiquitin-protein ligase WWP2 L446M, O00308 | -0.05 ± 0.03

Substance | abundance fitness
NEDD4-like E3 ubiquitin-protein ligase WWP2 Y461H, O00308 | -0.526 ± 0.077
NEDD4-like E3 ubiquitin-protein ligase WWP2 Y461D, O00308 | -1.1 ± 0.15
NEDD4-like E3 ubiquitin-protein ligase WWP2 E457S, O00308 | -0.201 ± 0.061
NEDD4-like E3 ubiquitin-protein ligase WWP2 Y491G, O00308 | 0.043 ± 0.04
NEDD4-like E3 ubiquitin-protein ligase WWP2 W450M, O00308 | -0.4 ± 0.071
NEDD4-like E3 ubiquitin-protein ligase WWP2 Q442A, O00308 | -0.07 ± 0.035
NEDD4-like E3 ubiquitin-protein ligase WWP2 G489Y, O00308 | -0.334 ± 0.087
NEDD4-like E3 ubiquitin-protein ligase WWP2 R468I, O00308 | -0.51 ± 0.12
NEDD4-like E3 ubiquitin-protein ligase WWP2 V463G, O00308 | -0.972 ± 0.039
NEDD4-like E3 ubiquitin-protein ligase WWP2 G482R, O00308 | -0.097 ± 0.043
NEDD4-like E3 ubiquitin-protein ligase WWP2 R460E, O00308 | -0.183 ± 0.063
NEDD4-like E3 ubiquitin-protein ligase WWP2 R468A, O00308 | -0.157 ± 0.035
NEDD4-like E3 ubiquitin-protein ligase WWP2 M452G, O00308 | -0.197 ± 0.051
NEDD4-like E3 ubiquitin-protein ligase WWP2 M440S, O00308 | -0.102 ± 0.086
NEDD4-like E3 ubiquitin-protein ligase WWP2 I441Y, O00308 | -0.33 ± 0.11
NEDD4-like E3 ubiquitin-protein ligase WWP2 Q485D, O00308 | -0.003 ± 0.053
NEDD4-like E3 ubiquitin-protein ligase WWP2 V459Y, O00308 | -0.335 ± 0.071
NEDD4-like E3 ubiquitin-protein ligase WWP2 D492Y, O00308 | -0.189 ± 0.033
NEDD4-like E3 ubiquitin-protein ligase WWP2 E451L, O00308 | -0.415 ± 0.053
NEDD4-like E3 ubiquitin-protein ligase WWP2 T469W, O00308 | -0.502 ± 0.036
NEDD4-like E3 ubiquitin-protein ligase WWP2 P447K, O00308 | -0.17 ± 0.052
NEDD4-like E3 ubiquitin-protein ligase WWP2 G486Y, O00308 | -0.239 ± 0.069
NEDD4-like E3 ubiquitin-protein ligase WWP2 E457Y, O00308 | -0.216 ± 0.057

Substance | abundance fitness
NEDD4-like E3 ubiquitin-protein ligase WWP2 G489I, O00308 | -0.035 ± 0.078
NEDD4-like E3 ubiquitin-protein ligase WWP2 S481N, O00308 | -0.062 ± 0.054
NEDD4-like E3 ubiquitin-protein ligase WWP2 A445M, O00308 | -0.073 ± 0.052
NEDD4-like E3 ubiquitin-protein ligase WWP2 E457N, O00308 | -0.189 ± 0.068
NEDD4-like E3 ubiquitin-protein ligase WWP2 E451A, O00308 | -0.153 ± 0.056
NEDD4-like E3 ubiquitin-protein ligase WWP2 F462R, O00308 | -0.851 ± 0.046
NEDD4-like E3 ubiquitin-protein ligase WWP2 F479R, O00308 | -0.046 ± 0.049
NEDD4-like E3 ubiquitin-protein ligase WWP2 W450I, O00308 | -0.197 ± 0.083
NEDD4-like E3 ubiquitin-protein ligase WWP2 P475K, O00308 | -1.24 ± 0.27
NEDD4-like E3 ubiquitin-protein ligase WWP2 R460F, O00308 | -0.261 ± 0.065
NEDD4-like E3 ubiquitin-protein ligase WWP2 K473W, O00308 | -0.026 ± 0.075
NEDD4-like E3 ubiquitin-protein ligase WWP2 R468K, O00308 | -0.071 ± 0.071
NEDD4-like E3 ubiquitin-protein ligase WWP2 P488D, O00308 | 0.033 ± 0.053
NEDD4-like E3 ubiquitin-protein ligase WWP2 S456P, O00308 | -0.062 ± 0.062
NEDD4-like E3 ubiquitin-protein ligase WWP2 W450T, O00308 | -0.475 ± 0.075
NEDD4-like E3 ubiquitin-protein ligase WWP2 E443P, O00308 | -0.065 ± 0.064
NEDD4-like E3 ubiquitin-protein ligase WWP2 P488G, O00308 | -0.032 ± 0.04
NEDD4-like E3 ubiquitin-protein ligase WWP2 K473Y, O00308 | 0.087 ± 0.071
NEDD4-like E3 ubiquitin-protein ligase WWP2 H465I, O00308 | -0.207 ± 0.08
NEDD4-like E3 ubiquitin-protein ligase WWP2 I441Q, O00308 | -0.035 ± 0.068
